Assay results taken from patent publication US20140370035A1 (BIOVERATIV THERAPEUTICS, published 2014).

Tests used:
[1] = target: single-chain canine FcRn (canine); experiment: SPR (Biacore T100), steady state, pH 6.0; single-chain FcRn amine-coupled to CM5 chip, analyte at 0.0625-2000 nM
[2] = target: single-chain human FcRn (human) (UniProt P55899); experiment: as above
[3] = target: single-chain murine FcRn (mouse) (UniProt Q61559); experiment: as above
[4] = test system: T1, rBDD FVIII (recombinant B-domain deleted FVIII)
T1 sequence: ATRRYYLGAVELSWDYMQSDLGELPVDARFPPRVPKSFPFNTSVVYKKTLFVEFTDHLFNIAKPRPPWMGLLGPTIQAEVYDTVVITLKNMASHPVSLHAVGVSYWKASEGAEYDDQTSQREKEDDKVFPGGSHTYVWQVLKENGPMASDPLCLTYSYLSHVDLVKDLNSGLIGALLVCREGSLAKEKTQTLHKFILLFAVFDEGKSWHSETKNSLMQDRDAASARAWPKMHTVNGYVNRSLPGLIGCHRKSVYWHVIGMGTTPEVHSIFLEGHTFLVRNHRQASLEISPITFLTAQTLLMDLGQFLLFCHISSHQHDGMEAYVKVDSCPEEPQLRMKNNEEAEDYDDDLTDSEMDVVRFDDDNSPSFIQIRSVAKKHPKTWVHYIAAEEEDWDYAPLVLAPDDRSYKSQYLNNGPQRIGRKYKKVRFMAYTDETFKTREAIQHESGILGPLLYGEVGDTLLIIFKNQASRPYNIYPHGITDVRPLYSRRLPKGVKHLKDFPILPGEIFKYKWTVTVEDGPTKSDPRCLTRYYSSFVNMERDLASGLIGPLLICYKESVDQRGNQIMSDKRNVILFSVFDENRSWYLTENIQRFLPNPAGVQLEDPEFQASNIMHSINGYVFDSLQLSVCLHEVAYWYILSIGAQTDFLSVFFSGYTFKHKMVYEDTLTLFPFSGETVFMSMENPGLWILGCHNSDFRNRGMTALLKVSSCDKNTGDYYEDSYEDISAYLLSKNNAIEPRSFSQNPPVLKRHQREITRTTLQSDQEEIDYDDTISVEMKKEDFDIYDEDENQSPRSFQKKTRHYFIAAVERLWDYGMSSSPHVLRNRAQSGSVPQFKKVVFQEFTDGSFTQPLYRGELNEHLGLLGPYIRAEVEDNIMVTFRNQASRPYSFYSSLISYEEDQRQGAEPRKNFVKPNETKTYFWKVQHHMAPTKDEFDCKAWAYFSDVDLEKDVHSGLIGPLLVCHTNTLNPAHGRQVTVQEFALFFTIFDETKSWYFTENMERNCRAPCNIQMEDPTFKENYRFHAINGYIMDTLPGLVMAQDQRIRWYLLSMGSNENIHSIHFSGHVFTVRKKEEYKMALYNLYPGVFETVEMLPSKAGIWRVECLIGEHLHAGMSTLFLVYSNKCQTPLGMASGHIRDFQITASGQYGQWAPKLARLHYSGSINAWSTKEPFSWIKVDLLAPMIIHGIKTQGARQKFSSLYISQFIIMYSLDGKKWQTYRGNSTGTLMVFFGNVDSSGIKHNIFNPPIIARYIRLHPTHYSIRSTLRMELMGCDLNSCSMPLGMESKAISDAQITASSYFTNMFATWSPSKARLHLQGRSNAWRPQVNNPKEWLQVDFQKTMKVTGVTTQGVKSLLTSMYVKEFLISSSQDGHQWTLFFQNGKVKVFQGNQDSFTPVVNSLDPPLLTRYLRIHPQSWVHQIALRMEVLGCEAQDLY

[5] = target: T2, human von Willebrand factor (human, UniProt P04275 764-2813); experiment: SPR (BIAcore); FVIII protein as analyte, hvWf as ligand; N=5
T2 construct: also called hvWf; vWF
Experimental: (§1) Kinetic rate parameters of Kₐ (on-rate) and Kd (off-rate), and the affinity KD (Kd/Kₐ), were determined for each FVIII interaction under identical conditions.

[6] = target: T2, human von Willebrand factor; experiment: SPR (BIAcore); FVIII protein as analyte, hvWf as ligand; N=5; KD = off-rate/on-rate
Experimental: as §1

Chain of single-chain human FcRn (human) (P55899 24-297 limits assumed, form in doubt, chain 1 of 2): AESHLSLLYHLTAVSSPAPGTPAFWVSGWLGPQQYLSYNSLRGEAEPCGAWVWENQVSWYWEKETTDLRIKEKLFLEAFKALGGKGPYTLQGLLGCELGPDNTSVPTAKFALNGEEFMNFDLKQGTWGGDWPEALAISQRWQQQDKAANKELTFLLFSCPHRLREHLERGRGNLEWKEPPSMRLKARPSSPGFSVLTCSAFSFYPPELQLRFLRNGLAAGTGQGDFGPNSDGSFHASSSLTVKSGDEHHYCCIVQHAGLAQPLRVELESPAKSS
Chain of single-chain human FcRn (human) (chain, as listed by the source limits assumed, form in doubt, chain 2 of 2): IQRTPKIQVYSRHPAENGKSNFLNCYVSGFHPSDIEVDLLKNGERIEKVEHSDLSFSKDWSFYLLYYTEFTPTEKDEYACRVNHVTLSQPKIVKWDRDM
Chain of single-chain canine FcRn (canine) (chain, as listed by the source, form in doubt): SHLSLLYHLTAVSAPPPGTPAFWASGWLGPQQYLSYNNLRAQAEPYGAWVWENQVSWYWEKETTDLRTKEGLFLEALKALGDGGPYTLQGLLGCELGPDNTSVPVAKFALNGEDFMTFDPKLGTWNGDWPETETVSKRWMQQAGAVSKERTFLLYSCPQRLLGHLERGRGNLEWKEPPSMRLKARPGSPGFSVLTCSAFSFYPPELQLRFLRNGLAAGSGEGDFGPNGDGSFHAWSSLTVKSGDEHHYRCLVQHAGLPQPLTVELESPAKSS
Chain of single-chain murine FcRn (mouse) (Q61559 22-297 limits assumed, form in doubt, chain 1 of 2): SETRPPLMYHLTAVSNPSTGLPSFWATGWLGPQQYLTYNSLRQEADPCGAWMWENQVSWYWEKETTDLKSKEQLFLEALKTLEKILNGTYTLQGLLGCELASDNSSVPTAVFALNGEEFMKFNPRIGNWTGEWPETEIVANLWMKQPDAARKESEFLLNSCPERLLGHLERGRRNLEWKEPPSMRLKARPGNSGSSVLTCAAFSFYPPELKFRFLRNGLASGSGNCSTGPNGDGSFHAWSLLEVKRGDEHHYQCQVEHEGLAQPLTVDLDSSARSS
Chain of single-chain murine FcRn (mouse) (chain, as listed by the source limits assumed, form in doubt, chain 2 of 2): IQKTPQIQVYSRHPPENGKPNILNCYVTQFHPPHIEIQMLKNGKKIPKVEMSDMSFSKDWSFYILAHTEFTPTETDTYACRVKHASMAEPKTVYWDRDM

**Q.** What does the source list for Human IgG1 (antibody)?
**A.** EC50 [1]: 196 nM; EC50 [2]: 558 nM; EC50 [3]: < 22.4 nM

**Q.** For activated Factor IX, which Km (nM) (called Kd in the text): FXa generation rate against FIXa concentration, thrombin-activated FVIII protein on 25% PS-75% PC vesicles [4] is on record?
**A.** Its Km (nM) (called Kd in the text): FXa generation rate against FIXa concentration, thrombin-activated FVIII protein on 25% PS-75% PC vesicles is 2.5 nM.

**Q.** What about the Vmax (nM/min): FXa generation rate against FIXa concentration [4] of the same molecule?
**A.** The Vmax (nM/min): FXa generation rate against FIXa concentration was 4 nM/min.

**Q.** With activated protein C as the molecule, how does the “normalized FXa generation rate following cleavage by APC (thrombin 30' = 100); shown without a number” value [4] read?
**A.** The value was “'BDD FVIII' is one of the two lighter bars of each group (alike in the scan); both lighter bars: about 8-16 without thrombin, 100 after thrombin 30', not lowered after a further 15' with APC (about 108-111), fallen to about 18-27 after 90' with APC”.

B1: rBDD FVIII (recombinant B-domain deleted FVIII) (other)
chain: T1 sequence
notes: The commercial product is largely processed into heavy and light chains; also called XYNTHA
**Q.** For B1, which koff [5] is on record?
**A.** Its koff is 0.00114 s⁻¹.

**Q.** What about the kon [5] of the same molecule?
**A.** The kon was 1.37e+06 M⁻¹ s⁻¹.

**Q.** What about the Kd [6] of the same molecule?
**A.** Its Kd is 0.846 nM.
